From publication PMC11227723 come the findings set out here.

In the test the target is Tropomyosin receptor kinase B (human TrkB), stably expressed in NIH-3T3 cells (human) (UniProt Q16620).
Chain of UniProt Q16620 (Q16620 32-822): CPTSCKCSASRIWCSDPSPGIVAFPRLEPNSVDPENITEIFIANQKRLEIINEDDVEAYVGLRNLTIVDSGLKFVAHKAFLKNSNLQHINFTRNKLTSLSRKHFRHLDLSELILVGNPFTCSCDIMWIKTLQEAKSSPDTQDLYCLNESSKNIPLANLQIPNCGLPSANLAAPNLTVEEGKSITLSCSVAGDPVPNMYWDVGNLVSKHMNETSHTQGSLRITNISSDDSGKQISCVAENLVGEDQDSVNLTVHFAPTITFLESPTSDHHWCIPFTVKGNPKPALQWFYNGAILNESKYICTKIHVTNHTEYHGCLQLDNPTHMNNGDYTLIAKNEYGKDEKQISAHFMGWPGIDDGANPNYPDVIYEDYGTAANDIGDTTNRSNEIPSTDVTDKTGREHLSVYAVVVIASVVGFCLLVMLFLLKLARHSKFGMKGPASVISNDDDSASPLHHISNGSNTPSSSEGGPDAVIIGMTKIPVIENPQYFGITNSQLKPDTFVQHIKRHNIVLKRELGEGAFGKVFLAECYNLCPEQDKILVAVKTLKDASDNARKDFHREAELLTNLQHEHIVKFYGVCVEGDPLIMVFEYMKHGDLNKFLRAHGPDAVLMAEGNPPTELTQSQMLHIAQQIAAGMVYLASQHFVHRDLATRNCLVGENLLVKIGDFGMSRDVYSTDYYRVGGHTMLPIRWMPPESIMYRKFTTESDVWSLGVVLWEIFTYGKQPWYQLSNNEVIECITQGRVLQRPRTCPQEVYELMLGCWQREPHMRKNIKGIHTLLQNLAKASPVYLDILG

In turn, “Brain-derived neurotrophic factor (ligand)” came in with a TrkB phosphorylation (Western blot of phosphorylated and total TrkB) in NIH-3T3-TrkB cells after 20 min with BDNF (500 ng/mL), fold change against the untreated control of 1.87 fold change.
